Measured values published in patent publication US6531296B1, “Nuclear tyrosine kinase Rak” (The University of North Carolina at Chapel Hill, priority 1995, dated 2003).
Like-named read-outs stand apart in the source and are kept apart here.

T1: pRb (Homo sapiens, UniProt P06400)
T1 construct: incubated with cell lysates from SK-BR-3 breast cancer cells; endogenous in cells; host or cells: SK-BR-3
T1 sequence (P06400 1-928): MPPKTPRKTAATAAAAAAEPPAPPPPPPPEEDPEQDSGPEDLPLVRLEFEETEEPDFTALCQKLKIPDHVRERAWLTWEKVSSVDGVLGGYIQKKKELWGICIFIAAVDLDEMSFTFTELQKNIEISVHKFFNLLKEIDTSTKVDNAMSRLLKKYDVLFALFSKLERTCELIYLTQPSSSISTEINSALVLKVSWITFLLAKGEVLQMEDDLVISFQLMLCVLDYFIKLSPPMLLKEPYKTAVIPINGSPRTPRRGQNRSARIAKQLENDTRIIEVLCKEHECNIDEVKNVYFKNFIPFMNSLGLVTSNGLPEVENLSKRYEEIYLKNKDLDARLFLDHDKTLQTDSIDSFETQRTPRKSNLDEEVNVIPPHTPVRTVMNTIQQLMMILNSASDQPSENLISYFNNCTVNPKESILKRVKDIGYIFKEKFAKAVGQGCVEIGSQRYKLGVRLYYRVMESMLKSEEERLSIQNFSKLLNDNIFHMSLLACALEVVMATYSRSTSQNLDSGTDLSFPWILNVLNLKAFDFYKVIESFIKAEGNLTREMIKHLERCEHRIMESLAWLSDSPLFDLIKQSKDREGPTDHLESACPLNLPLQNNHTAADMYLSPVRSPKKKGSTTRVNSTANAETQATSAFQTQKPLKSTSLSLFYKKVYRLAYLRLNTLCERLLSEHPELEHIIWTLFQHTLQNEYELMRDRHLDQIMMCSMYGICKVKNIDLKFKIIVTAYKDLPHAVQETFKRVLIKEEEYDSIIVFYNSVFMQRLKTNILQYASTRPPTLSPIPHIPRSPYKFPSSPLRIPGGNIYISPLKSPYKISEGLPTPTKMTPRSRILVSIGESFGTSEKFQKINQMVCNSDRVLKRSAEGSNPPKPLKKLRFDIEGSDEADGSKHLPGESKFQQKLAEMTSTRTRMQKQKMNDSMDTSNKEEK


How the values were obtained:
[1] = target: T2, CDC2 (Homo sapiens, UniProt P06493); test: In vitro kinase assay of immunoprecipitated CDC2 with Histone H1 as exogenous substrate; assay type: biochemical; parameters: incubated with immunoprecipitated CDC2; endogenous in cells
T2 sequence (P06493 whole entry, the tested form may be a part): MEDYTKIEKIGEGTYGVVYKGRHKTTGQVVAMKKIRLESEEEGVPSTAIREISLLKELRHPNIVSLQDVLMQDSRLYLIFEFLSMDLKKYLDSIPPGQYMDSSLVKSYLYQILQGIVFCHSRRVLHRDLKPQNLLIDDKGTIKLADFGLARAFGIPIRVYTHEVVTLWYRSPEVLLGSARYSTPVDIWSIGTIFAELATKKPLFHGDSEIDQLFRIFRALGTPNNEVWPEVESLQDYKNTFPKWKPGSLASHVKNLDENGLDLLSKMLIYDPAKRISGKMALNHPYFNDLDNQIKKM
Procedure: The 110 N-terminal amino acids of Rak were produced as a GST fusion protein (RAKNT:GST) and incubated with immunoprecipitated CDC2, and subjected to an in vitro kinase assay with Histone H1 added as an exogenous substrate, and analyzed by SDS-PAGE. […] This fusion protein was incubated with immunoprecipitated CDC2, and subjected to an in vitro kinase assay with Histone H1 added as an exogenous substrate, and analyzed by SDS-PAGE.
The CDC2 binding domain of RAK appears to be between amino acids 86-110. Since the binding of RAK to CDC2 is exceptionally strong, the biological function of this interaction was explored.

[2] = tested on: Shc; test: Affinity precipitation from SK-BR-3 lysate with GST-RakNT; assay type: binding, human; conditions: SK-BR-3 cell lysate
Chain of Shc (P29353 156-583 limits assumed): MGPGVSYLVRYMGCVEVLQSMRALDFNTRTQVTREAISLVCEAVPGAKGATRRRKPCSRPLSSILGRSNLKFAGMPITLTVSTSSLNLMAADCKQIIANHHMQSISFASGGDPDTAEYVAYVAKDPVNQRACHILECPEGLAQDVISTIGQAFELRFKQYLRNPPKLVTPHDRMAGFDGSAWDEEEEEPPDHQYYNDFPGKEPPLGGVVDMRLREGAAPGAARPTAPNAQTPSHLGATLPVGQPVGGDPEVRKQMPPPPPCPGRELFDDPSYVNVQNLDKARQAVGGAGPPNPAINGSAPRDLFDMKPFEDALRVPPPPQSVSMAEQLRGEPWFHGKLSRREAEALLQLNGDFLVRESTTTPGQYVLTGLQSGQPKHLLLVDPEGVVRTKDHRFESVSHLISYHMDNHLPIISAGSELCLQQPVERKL
Procedure: (§1) For affinity precipitations, 250 ug of cell lysate was pre-cleared once with 25 ul of glutathione-sepharose beads (Pharmacia) then once with 25 ul of the same beads containing 2 ug/ml Glutathione S-transferase. The lysate was then incubated with 25 ul of GST-RakNT bound to glutathione-sepharose, in a total volume of 500 ul of NP-40 lysis buffer, for 3 hours at 4° C. The beads were then washed three times in NP-40 Lysis Buffer and the bound proteins were eluted with SDS-PAGE sample loading buffer. pRb binding was assessed by Western blot analysis with the G3-245 antibody at 1 ug/ml.
(§2) Results and Discussion: To test whether Rak and pRb physically interact, the first 110 amino acids of Rak (first 110 amino acids of SEQ ID NO:2), where the predicted interacting peptides reside were prepared as a bacterial fusion protein with the Glutathione-S transferase gene (Rak-NT:GST), and incubated with cell lysates from SK-BR-3 breast cancer cells, and bound proteins were analyzed by Western blotting. Glutathione-S transferase alone was used as the control. […] In contrast, binding of Rak to proteins that interact with the SH3 domains of other members of the Src family, such as GAP-associated p62 or Shc, was not found (data not shown).

[3] = target: T3, Cdk5 (Homo sapiens, UniProt Q00535); test: Affinity precipitation from BT474 lysate with Rak N-terminal GST fusion protein; assay type: binding; conditions: BT474 cell lysate
T3 construct: endogenous in cells; host or cells: BT474
T3 sequence (Q00535 whole entry, the tested form may be a part): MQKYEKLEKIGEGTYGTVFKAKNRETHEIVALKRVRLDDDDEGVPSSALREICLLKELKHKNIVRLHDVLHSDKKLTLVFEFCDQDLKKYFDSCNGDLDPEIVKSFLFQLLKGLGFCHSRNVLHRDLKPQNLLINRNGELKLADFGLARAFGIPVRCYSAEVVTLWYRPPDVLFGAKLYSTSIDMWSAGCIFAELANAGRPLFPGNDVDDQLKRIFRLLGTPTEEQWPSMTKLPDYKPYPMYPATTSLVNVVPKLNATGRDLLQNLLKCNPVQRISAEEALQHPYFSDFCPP
Procedure: as §1
(§3) Because the N-terminus is frequently responsible for protein-protein interactions in Src-related kinases, the proteins that bind to this region were characterized. The N-terminal 110 amino acids of Rak were expressed as a bacterial fusion protein with Glutathione S-transferase, and were incubated with cell lysates from BT474 breast cancer cells. In this assay, binding of RAK to the cyclin-dependent kinases Cdc2 and Cdk4 was detected, but binding to Cdk5, Cdk6, or Cdk7 was not detected (data not shown).

[4] = target: T4, Cdk7 (Homo sapiens, UniProt P50613); test: as above; assay type: binding; conditions: BT474 cell lysate
T4 construct: endogenous in cells; host or cells: BT474
T4 sequence (P50613 whole entry): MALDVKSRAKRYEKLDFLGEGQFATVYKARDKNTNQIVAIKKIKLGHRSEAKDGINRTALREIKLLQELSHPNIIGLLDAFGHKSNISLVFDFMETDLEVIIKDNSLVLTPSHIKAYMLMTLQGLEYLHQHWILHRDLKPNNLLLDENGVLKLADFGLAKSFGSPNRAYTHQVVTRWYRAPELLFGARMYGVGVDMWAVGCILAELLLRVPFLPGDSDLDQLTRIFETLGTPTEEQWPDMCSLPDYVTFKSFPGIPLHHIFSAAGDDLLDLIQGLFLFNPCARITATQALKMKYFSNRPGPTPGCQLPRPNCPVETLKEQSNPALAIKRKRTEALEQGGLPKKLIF
Procedure: as §1, §3

[5] = target: T5, Cdk6 (Homo sapiens, UniProt Q00534); test: as above; assay type: binding; conditions: BT474 cell lysate
T5 construct: endogenous in cells; host or cells: BT474
T5 sequence (Q00534 whole entry): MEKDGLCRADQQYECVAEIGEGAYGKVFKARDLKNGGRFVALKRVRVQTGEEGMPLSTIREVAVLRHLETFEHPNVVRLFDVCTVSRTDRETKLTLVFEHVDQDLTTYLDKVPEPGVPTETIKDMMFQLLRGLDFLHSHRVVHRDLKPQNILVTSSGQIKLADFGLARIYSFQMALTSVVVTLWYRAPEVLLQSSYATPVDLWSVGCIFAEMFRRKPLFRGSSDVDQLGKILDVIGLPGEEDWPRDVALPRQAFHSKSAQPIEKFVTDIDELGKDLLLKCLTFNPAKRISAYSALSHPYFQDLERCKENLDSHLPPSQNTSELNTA
Procedure: as §1, §3

[6] = target: T6, Cdk4 (Homo sapiens, UniProt P11802); test: as above; assay type: binding; conditions: BT474 cell lysate
T6 construct: endogenous in cells; host or cells: BT474
T6 sequence (P11802 whole entry): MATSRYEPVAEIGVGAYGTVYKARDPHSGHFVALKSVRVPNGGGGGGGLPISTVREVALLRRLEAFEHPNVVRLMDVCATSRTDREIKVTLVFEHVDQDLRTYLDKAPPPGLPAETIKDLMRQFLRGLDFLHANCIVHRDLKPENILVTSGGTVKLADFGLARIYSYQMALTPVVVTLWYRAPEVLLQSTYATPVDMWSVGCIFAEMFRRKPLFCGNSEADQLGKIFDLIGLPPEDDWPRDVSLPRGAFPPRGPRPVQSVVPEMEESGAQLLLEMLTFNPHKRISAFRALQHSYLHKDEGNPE
Procedure: as §1, §3

[7] = target: T2, CDC2; test: as above; assay type: binding; parameters: endogenous in cells; host or cells: BT474; conditions: BT474 cell lysate
Procedure: as §1, §3

[8] = target: T1, pRb; test: Affinity precipitation from SK-BR-3 lysate with GST-RakNT, Western blot for pRb; assay type: binding; conditions: SK-BR-3 cell lysate, GST alone as control
Procedure: Affinity Precipitations. DNA fragments encoding the amino terminal region of Rak were prepared using the polymerase chain reaction with Pyrococcus furiosus DNA polymerase (Stratagene), and cloned into the pGEX-4T plasmid (Pharmacia). Rb fusion proteins encoding amino acids 379-928 (RbABC, containing the A/B pocket region and the COOH-terminal domain) and 780-928 (RbC for COOH terminal domain only), were prepared similarly. The GST fusion proteins were induced and purified according to the manufacturer's instructions, and were analyzed by SDS-PAGE to ensure that an equal amount of protein was used for the affinity precipitation procedure.
For affinity precipitations, 250 ug of cell lysate was pre-cleared once with 25 ul of glutathione-sepharose beads (Pharmacia) then once with 25 ul of the same beads containing 2 ug/ml Glutathione S-transferase. […]
Results and Discussion: To test whether Rak and pRb physically interact, the first 110 amino acids of Rak (first 110 amino acids of SEQ ID NO:2), where the predicted interacting peptides reside were prepared as a bacterial fusion protein with the Glutathione-S transferase gene (Rak-NT:GST), and incubated with cell lysates from SK-BR-3 breast cancer cells, and bound proteins were analyzed by Western blotting. […]

[9] = target: T7, GAP-associated p62 (Homo sapiens, UniProt Q07666); test: Affinity precipitation from SK-BR-3 lysate with GST-RakNT; assay type: binding; conditions: SK-BR-3 cell lysate
T7 construct: incubated with cell lysates from SK-BR-3 breast cancer cells; endogenous in cells; host or cells: SK-BR-3
T7 sequence (Q07666 whole entry): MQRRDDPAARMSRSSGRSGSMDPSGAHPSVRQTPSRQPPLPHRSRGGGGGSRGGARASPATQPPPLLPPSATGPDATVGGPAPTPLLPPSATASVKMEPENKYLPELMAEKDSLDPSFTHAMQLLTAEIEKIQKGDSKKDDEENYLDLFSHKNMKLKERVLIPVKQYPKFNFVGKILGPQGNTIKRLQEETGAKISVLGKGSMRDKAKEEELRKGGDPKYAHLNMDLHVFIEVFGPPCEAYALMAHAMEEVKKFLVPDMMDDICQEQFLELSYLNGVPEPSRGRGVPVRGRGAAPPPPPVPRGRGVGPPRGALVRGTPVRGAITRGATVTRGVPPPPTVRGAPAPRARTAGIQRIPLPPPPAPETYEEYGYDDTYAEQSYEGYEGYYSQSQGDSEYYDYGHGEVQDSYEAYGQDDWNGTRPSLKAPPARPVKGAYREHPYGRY
Procedure: as §1, §2

inhibition of CDC2 histone H1 phosphorylation activity ([1]; listed as RAK-SH3:GST) | binding to Shc [2] | binding to Cdk5 [3] | binding to Cdk7 [4] | binding to Cdk6 [5] | binding to Cdk4 [6] | binding to Cdc2 [7] | pRb binding [8] | binding to GAP-associated p62 [9] | Molecule | inhibition of CDC2 histone H1 phosphorylation activity ([1]; listed as RakNT fusion protein) | inhibition of CDC2 histone H1 phosphorylation activity [1]
able to block CDC2 histone H1 activity | not found | not detected | not detected | not detected | detected | detected | bound | not found | Rak-NT:GST: first 110 amino acids of Rak (SEQ ID NO:2) as bacterial fusion protein with Glutathione-S transferase (protein, left off: a dimerising Fc or GST; large carriers; small tags and cut ends) MSNICQRLWEYLEPYLPCLSTEADKSTVIENPGALCSPQSQRHGHYFVALFDYQARTAEDLSFRAGDKLQVLDTLHEGWWFARHLEKRRDGSSQQLQGYIPSNYVAEDRS | reduction of CDC2 histone H1 phosphorylation activity | 
 |  |  |  |  | did not affect binding |  |  |  | RAKΔ86:GST: RakNT GST fusion protein with amino acids 86-110 (CDC2 binding site) deleted (protein, UniProt P42685 1-85, looked up, fragment, GST fusion) MSNICQRLWEYLEPYLPCLSTEADKSTVIENPGALCSPQSQRHGHYFVALFDYQARTAEDLSFRAGDKLQVLDTLHEGWWFARHL |  | greatly diminished CDC2 inhibitory activity
